Target: Myc-tagged Bfl-1 (human) (UniProt Q16548)
Assay: fluorescence polarisation; competition: 0–10 μM unlabeled peptide titrated into 50 nM c-myc-tagged receptor plus 25 nM fluoresceinated BIM; 25 mM Tris pH 7.8, 50 mM NaCl, 1 mM EDTA, 5% DMSO, 0.001% v/v Triton-X; 23°C, 3 hr; fit to a complete competitive binding model

Sequence of Myc-tagged Bfl-1 (human) (Q16548 whole entry): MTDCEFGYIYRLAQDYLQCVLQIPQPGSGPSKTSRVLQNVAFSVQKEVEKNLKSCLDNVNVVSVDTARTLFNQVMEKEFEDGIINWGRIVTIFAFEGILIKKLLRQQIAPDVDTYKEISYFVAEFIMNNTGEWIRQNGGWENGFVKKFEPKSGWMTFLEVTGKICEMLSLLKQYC

Ki: < 0.1 nM
Substance: BIM BH3 peptide (unlabeled) (peptide; other documents disagree on this pair)

Source: article PMC5464773
